We go through 2 substances from publication PMC6796912.

Assay [1] addresses Saccharomyces cerevisiae Tel1 (TEL1-FLAG), endogenously purified (S. cerevisiae) (UniProt P38110). Put plainly: cryo-EM structure; Tel1-FLAG purified from S. cerevisiae, 20–50 μg/mL in 20 mM HEPES pH 8.0, 40 mM KOAc, 5 mM MgCl2, 0.1% trehalose, 2 mM DTT, 0.01% NP-40; symmetric dimer (C2, 4.1 Å) and asymmetric dimer (4.3 Å) classes.
The target in assay [2] is GST-Xrs2 (full-length S. cerevisiae Xrs2) (S. cerevisiae) (UniProt P33301). Kind of assay: pull-down; glutathione sepharose saturated with full-length GST-Xrs2 added to lysates of yeast expressing wild-type or mutant Tel1; 2 h at 4 °C, washed 3 times with lysis buffer; immunoblot with anti-PAP antibody.
Chain of GST-Xrs2 (full-length S. cerevisiae Xrs2) (S. cerevisiae) (P33301 whole entry): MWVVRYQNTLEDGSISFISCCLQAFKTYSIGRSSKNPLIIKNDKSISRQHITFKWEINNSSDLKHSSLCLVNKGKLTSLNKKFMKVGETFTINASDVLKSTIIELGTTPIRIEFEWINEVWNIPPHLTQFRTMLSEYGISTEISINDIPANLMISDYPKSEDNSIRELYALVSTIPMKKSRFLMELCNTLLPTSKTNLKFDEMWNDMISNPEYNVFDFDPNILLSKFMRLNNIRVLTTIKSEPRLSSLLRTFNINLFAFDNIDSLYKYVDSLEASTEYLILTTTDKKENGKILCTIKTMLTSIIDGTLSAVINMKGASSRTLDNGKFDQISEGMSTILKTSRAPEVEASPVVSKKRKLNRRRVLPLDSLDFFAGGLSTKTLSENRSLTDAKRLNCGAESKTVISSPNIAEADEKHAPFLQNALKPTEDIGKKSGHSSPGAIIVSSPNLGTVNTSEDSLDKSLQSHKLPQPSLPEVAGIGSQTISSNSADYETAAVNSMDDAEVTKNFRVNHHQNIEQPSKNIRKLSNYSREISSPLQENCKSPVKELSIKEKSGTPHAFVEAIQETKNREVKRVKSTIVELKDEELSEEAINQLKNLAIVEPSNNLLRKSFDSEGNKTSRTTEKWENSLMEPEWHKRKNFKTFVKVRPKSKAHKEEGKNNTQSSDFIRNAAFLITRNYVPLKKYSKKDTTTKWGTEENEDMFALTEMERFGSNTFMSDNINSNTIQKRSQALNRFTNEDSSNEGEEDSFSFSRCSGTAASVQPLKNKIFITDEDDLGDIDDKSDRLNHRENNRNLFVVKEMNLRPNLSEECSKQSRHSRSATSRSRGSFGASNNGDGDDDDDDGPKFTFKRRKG

As for “Saccharomyces cerevisiae Tel1 (TEL1-FLAG), endogenously purified, P38110 1-2787”, the stoichiometry N in assay [1] worked out at 2.

In assay [2], Tel1 K2751E (TAP-tagged), P38110 1-2787 had a decrease of Xrs2 binding against wild-type Tel1 of 100%.

A word on the stoichiometry N: it is the number of molecules, sites or subunits per partner or assembly.
